In patent publication US20250127885A1 (University of Texas, published 2025):
Substitutions are numbered along the chain they refer to. Names may count otherwise.

What was measured:
[1] = biological target: T1, human IgG1 Fc (no Fab arms) (human, UniProt P0DOX5 230-449 = IgG part); experiment: ELISA, human Fc coated, FLAG-tagged receptor titrated, anti-FLAG (M2)-HRP; curve assigned by paragraph 53 (top line at 10 ug/mL)
T1 construct: also called huFc; hu-Fc

[2] = biological target: T1, human IgG1 Fc (no Fab arms); experiment: ELISA, human Fc coated, FLAG-tagged receptor titrated, anti-FLAG (M2)-HRP; curve assigned by paragraph 53 (lower line at 10 ug/mL)
[3] = biological target: T2, HCMV gp34 ectodomain displayed on ExpiCHO cells (human cytomegalovirus (HCMV), UniProt P16809 24-182); experiment: flow cytometry on gp34-transfected ExpiCHO cells, antibody-mFc at 10 ug/mL, anti-mouse Fcγ AF647
T2 construct: also called gp34-FLAG with a PDGFR anchor; not shown: C-terminal FLAG (M2) tag and PDGFR transmembrane domain
T2 sequence: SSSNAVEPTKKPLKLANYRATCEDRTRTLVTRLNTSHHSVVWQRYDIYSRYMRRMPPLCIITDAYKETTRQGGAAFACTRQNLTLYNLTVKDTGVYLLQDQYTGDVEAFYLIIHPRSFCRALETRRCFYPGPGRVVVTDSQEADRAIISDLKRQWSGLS

B1: soluble wild-type HCMV gp34 ectodomain (receptor)
chain: T2 sequence
notes: Prone to aggregation; SEC-purified for the ELISA; also called WT gp34; wild-type (WT) gp34; not shown: C-terminal FLAG (M2) tag and Strep tag
[1]
  EC50 (read off the curve): ~0.1 µg/mL

B2: soluble HCMV gp34 ectodomain with C150S (gp34-M) (receptor)
chain: T2 sequence with C127S
notes: also called gp34 C150S; Soluble gp34 C150S; not shown: C-terminal FLAG (M2) tag and single Strep tag
[2]
  EC50 (read off the curve): ~0.04 µg/mL

B3: anti-gp34 antibody 34-2 with murine IgG2a Fc (antibody, V domains shown)
VH: QVQLQQSGTELVKPGASVKLSCTASGFNIKDTYMHWVKQRPEQGLEWIGRIDPASDDTKYDPKFQGKAAITADTSSNTAYLQLSSLTSEDTAVYYCSKDGYYAYWGQGTLVTVSA
VL: DIVMTQSPASLAVSLGQRATISCRASESVDSYGNSFMHWYQQKPGQPPKLLIYRASNLESGIPARFSGSGSRTDFTLTINPVEADDVATYYCQQSYEVPRTFGGGTKLEIKR
notes: Variable domains on human CL and human CH1 joined to murine IgG2a Fc; also called antibody-mFc; not shown: human CH1 region; murine IgG2a Fc (mFc)
[3]
  binding result: binds

B4: anti-gp34 antibody 34-4 with murine IgG2a Fc (antibody, V domains shown)
VH: QVQLQQSGTVLARPGASVKMSCKASGYTFTAYWMHWVKQRPGQGLEWIGAIYPGNSDAGYNQKFKGKAKLTAVTSTSTAYMELSSLANEDSAVYYCTRWGNNSFWGQGTTLTVSS
VL: DIQMTQSPSSMYASLGERVTITCKASQDINSYLTWFQQKPGKSPKTLIYRANRLVDGVPSRFSGSGSGQDYSLTISTLEYEDMGIYYCLQYDEFPPTFGAGTKLELKR
notes: as for B3
[3]
  binding result: binds

B5: anti-gp34 antibody 34-5 with murine IgG2a Fc (antibody, V domains shown)
VH: QVQLQQSGAELVRPGTSVKVSCKTSGYAFTNYLIEWVKQRPGQGLEWIGVINPGSGGTNYNEKFKGKATLTADKSSSTAYMQLSSLTSDDSAVYFCVLQVGRLAYWGQGTLVTVSA
VL: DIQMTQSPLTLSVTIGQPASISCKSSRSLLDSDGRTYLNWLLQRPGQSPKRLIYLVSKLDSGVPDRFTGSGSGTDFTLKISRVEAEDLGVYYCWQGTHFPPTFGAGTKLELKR
notes: as for B3
[3]
  binding result: binds
